Measured values as given in patent US20150165065A1 (AVIDBIOTICS, published 2015).
Changes are numbered by the printed parent chain.

B1: soluble MICA generated from pKK36 (loop 1 insert 3.1) (designed binder)
chain: HHHHHHEPHSLRYNLTVLSWDGSVQSGFLTEVHLDGQPFLRCDRQKCRAKPQGQWAEDVLGNKTWDRETRDLTGNGKDLRMTLAHIKDQKEGLHSLQEIRVCEIHEDNSTRSSQHFYYDGELFLSQNLETEEWTMPQSSRAQTLAMNVRNFLKEDAMKTKTHYHAMHADCLQELRRYLKSGVVLRRTVPPMVNVTSRGDHPRTQVTCRASGFYPWNITLSWRQDGVSLSHDTQQWGDVLPDGNGTYQTWVATRICQGEEQRFTCYMEHSGNHSTHPVPSGK
notes: From pKK34 (His6, Glu125); secreted by 293T cells; also called 1-3.1
B2: soluble MICA generated from pKK52 (tight loop 1 insert T-3.1) (designed binder)
chain: HHHHHHEPHSLRYNLTVLSWDGSVQSGFLTEVHLDGQPFLRCDRQKCRAKPQGQWAEDVLGNKTWDRETRDLTGNGKDLRMTLAHIKDQKEGLHSLQEIRVCEIHEDNSTRSSQHFYYDGELFLSQNLETEEWTMPQSSRAQTLAMNVRNFLKEDAMKTKTHYHAMHADCLQELRRYLKSGVVLRRTVPPMVNTSRGDHPRTQCRASGFYPWNITLSWRQDGVSLSHDTQQWGDVLPDGNGTYQTWVATRICQGEEQRFTCYMEHSGNHSTHPVPSGK
notes: From pSW324 (from pKK34: His6, Glu125); secreted by 293T cells; also called 1-T-3.1
B3: soluble MICA generated from pKK54 (tight loop 1 insert T-3.3) (designed binder)
chain: B2 chain with T194R, S195V, R196P, G197R, D198G, H199D, P200S, R201D, T202L, Q203T
notes: From pSW324 (from pKK34: His6, Glu125); secreted by 293T cells; also called 1-T-3.3
B4: soluble MICA generated from pKK56 (tight loop 1 insert T-5.3) (designed binder)
chain: B2 chain with T194H, S195L, R196A, G197R, D198G, H199D, P200D, R201L, Q203Y
notes: From pSW324 (from pKK34: His6, Glu125); secreted by 293T cells; also called 1-T-5.3
B5: soluble MICA generated from pKK55 (tight loop 1 insert T-5.1) (designed binder)
chain: B2 chain with T194V, S195T, H199T, P200F, R201T, T202Q, Q203S
notes: From pSW324 (from pKK34: His6, Glu125); secreted by 293T cells; also called 1-T-5.1
B6: soluble MICA generated from pKK53 (tight loop 1 insert T-3.5) (designed binder)
chain: B2 chain with T194G, H199S, P200L, R201I, T202M, Q203H
notes: From pSW324 (from pKK34: His6, Glu125); secreted by 293T cells; also called 1-T-3.5
B7: soluble MICA generated from pKK37 (loop 1 insert 3.2) (designed binder)
chain: HHHHHHEPHSLRYNLTVLSWDGSVQSGFLTEVHLDGQPFLRCDRQKCRAKPQGQWAEDVLGNKTWDRETRDLTGNGKDLRMTLAHIKDQKEGLHSLQEIRVCEIHEDNSTRSSQHFYYDGELFLSQNLETEEWTMPQSSRAQTLAMNVRNFLKEDAMKTKTHYHAMHADCLQELRRYLKSGVVLRRTVPPMVNVTRTSRGDHPRTQVTCRASGFYPWNITLSWRQDGVSLSHDTQQWGDVLPDGNGTYQTWVATRICQGEEQRFTCYMEHSGNHSTHPVPSGK
notes: From pKK34 (His6, Glu125); secreted by 293T cells; also called 1-3.2
B8: soluble MICA generated from pKK41 (loop 1 insert 5.2) (designed binder)
chain: HHHHHHEPHSLRYNLTVLSWDGSVQSGFLTEVHLDGQPFLRCDRQKCRAKPQGQWAEDVLGNKTWDRETRDLTGNGKDLRMTLAHIKDQKEGLHSLQEIRVCEIHEDNSTRSSQHFYYDGELFLSQNLETEEWTMPQSSRAQTLAMNVRNFLKEDAMKTKTHYHAMHADCLQELRRYLKSGVVLRRTVPPMVNVTRGDTFTQSVTCRASGFYPWNITLSWRQDGVSLSHDTQQWGDVLPDGNGTYQTWVATRICQGEEQRFTCYMEHSGNHSTHPVPSGK
notes: From pKK34 (His6, Glu125); secreted by 293T cells; also called 1-5.2
B9: soluble MICA generated from pKK38 (loop 1 insert 3.3) (designed binder)
chain: HHHHHHEPHSLRYNLTVLSWDGSVQSGFLTEVHLDGQPFLRCDRQKCRAKPQGQWAEDVLGNKTWDRETRDLTGNGKDLRMTLAHIKDQKEGLHSLQEIRVCEIHEDNSTRSSQHFYYDGELFLSQNLETEEWTMPQSSRAQTLAMNVRNFLKEDAMKTKTHYHAMHADCLQELRRYLKSGVVLRRTVPPMVNVTRVPRGDSDLTVTCRASGFYPWNITLSWRQDGVSLSHDTQQWGDVLPDGNGTYQTWVATRICQGEEQRFTCYMEHSGNHSTHPVPSGK
notes: From pKK34 (His6, Glu125); secreted by 293T cells; also called 1-3.3
B10: soluble MICA generated from pKK39 (loop 1 insert 3.4) (designed binder)
chain: B9 chain with V197S, P198A, L204H, T205R
notes: From pKK34 (His6, Glu125); secreted by 293T cells; also called 1-3.4
B11: soluble MICA generated from pKK42 (loop 1 insert 5.3) (designed binder)
chain: B9 chain with R196H, V197L, P198A, S202D, D203L, L204T, T205Y
notes: From pKK34 (His6, Glu125); secreted by 293T cells; also called 1-5.3
B12: soluble MICA generated from pKK40 (loop 1 insert 5.1) (designed binder)
chain: B9 chain with R196V, V197T, P198R, R199G, G200D, D201T, S202F, D203T, L204Q, T205S
notes: From pKK34 (His6, Glu125); secreted by 293T cells; also called 1-5.1
B13: soluble MICA generated from pKK48 (loop 3 insert extended 3.2sp) (designed binder)
chain: EPHSLRYNLTVLSWDGSVQSGFLTEVHLDGQPFLRCDRQKCRAKPQGQWAEDVLGNKTWDRETRDLTGNGKDLRMTLAHIKDQKEGLHSLQEIRVCEIHEDNSTRSSQHFYYDGELFLSQNLETKEWTMPQSSRAQTLAMNVRNFLKEDAMKTKTHYHAMHADCLQELRRYLKSGVVLRRTVPPMVNVTRSEASEGNITVTCRASGFYPWNITLSWRQDGVSLSHDTQQWGDVLPDGNGTYQTWVATRISGGSGGGSTSRGDHPRTQSGGSGGGCYMEHSGNHSTHPVPSGK
notes: From pSW276 (no N-terminal His tag, Lys125); secreted by 293T cells; also called 3-3.2sp
B14: soluble MICA generated from pKK49 (loop 3 insert extended 3.3sp) (designed binder)
chain: B13 chain with T258R, S259V, R260P, G261R, D262G, H263D, P264S, R265D, T266L, Q267T
notes: From pSW276 (no N-terminal His tag, Lys125); secreted by 293T cells; also called 3-3.3sp
B15: soluble MICA generated from pKK51 (loop 3 insert extended 5.3sp) (designed binder)
chain: B13 chain with T258H, S259L, R260A, G261R, D262G, H263D, P264D, R265L, Q267Y
notes: From pSW276 (no N-terminal His tag, Lys125); secreted by 293T cells; also called 3-5.3sp
B16: soluble MICA generated from pKK50 (loop 3 insert extended 5.1sp) (designed binder)
chain: B13 chain with T258V, S259T, H263T, P264F, R265T, T266Q, Q267S
notes: From pSW276 (no N-terminal His tag, Lys125); secreted by 293T cells; also called 3-5.1sp
B17: soluble MICA generated from pKK44 (loop 1 insert extended 3.2sp) (designed binder)
chain: HHHHHHEPHSLRYNLTVLSWDGSVQSGFLTEVHLDGQPFLRCDRQKCRAKPQGQWAEDVLGNKTWDRETRDLTGNGKDLRMTLAHIKDQKEGLHSLQEIRVCEIHEDNSTRSSQHFYYDGELFLSQNLETEEWTMPQSSRAQTLAMNVRNFLKEDAMKTKTHYHAMHADCLQELRRYLKSGVVLRRTVPPMVNVTSGGSGGGSTSRGDHPRTQSGGSGGGVTCRASGFYPWNITLSWRQDGVSLSHDTQQWGDVLPDGNGTYQTWVATRICQGEEQRFTCYMEHSGNHSTHPVPSGK
notes: From pKK34 (His6, Glu125); secreted by 293T cells; also called 1-3.2sp
B18: soluble MICA generated from pKK47 (loop 1 insert extended 5.3sp) (designed binder)
chain: B17 chain with T204H, S205L, R206A, G207R, D208G, H209D, P210D, R211L, Q213Y
notes: From pKK34 (His6, Glu125); secreted by 293T cells; also called 1-5.3sp
B19: soluble MICA generated from pKK45 (loop 1 insert extended 3.3sp) (designed binder)
chain: B17 chain with T204R, S205V, R206P, G207R, D208G, H209D, P210S, R211D, T212L, Q213T
notes: From pKK34 (His6, Glu125); secreted by 293T cells; also called 1-3.3sp
B20: M13 phage pKK104 displaying MICA α3 domain with loop 3 insert 3.2sp (designed binder)
chain: TVPPMVNVTRSEASEGNITVTCRASGFYPWNITLSWRQDGVSLSHDTQQWGDVLPDGNGTYQTWVATRISGGSGGGSTSRGDHPRTQSGGSGGGCYMEHSGNHSTHPVPSGK
notes: also called 3-3.2sp; not shown: C-terminal portion of M13 gene III protein, fused at codon position 198

What follows are binders tested against T1, integrin αVβ5 (UniProt P06756 31-992; P18084 24-719) (assay: ELISA, coated integrin, anti-MICA-HRP).
T1 construct: Coated on the ELISA plate
T1 sequence (P06756 31-992, chain 1 of 2): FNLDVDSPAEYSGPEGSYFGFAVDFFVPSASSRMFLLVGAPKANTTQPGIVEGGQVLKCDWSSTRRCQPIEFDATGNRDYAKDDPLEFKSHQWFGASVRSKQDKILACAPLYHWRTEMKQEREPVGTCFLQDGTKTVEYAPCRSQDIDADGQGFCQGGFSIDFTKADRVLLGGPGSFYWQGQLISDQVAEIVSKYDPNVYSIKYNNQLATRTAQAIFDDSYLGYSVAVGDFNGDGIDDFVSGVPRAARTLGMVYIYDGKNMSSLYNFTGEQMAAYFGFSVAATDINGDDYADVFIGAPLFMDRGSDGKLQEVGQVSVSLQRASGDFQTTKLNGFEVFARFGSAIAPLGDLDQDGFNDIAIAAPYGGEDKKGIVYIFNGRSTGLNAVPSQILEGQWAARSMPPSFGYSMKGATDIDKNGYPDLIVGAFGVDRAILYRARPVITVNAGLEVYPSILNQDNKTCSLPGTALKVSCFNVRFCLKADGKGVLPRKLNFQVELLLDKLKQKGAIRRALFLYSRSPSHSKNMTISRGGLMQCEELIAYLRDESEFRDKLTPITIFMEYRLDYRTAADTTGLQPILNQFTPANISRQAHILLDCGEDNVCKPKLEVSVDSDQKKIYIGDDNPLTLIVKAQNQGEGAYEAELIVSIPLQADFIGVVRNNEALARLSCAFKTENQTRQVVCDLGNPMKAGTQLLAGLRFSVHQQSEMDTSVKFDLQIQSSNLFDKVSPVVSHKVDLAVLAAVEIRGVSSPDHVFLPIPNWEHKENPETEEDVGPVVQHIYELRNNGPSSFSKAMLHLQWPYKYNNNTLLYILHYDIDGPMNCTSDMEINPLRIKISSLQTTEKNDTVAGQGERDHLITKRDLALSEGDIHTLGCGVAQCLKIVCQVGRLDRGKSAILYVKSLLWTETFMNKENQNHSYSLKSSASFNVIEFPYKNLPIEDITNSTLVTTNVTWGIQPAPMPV
T1 sequence (P18084 24-719, chain 2 of 2): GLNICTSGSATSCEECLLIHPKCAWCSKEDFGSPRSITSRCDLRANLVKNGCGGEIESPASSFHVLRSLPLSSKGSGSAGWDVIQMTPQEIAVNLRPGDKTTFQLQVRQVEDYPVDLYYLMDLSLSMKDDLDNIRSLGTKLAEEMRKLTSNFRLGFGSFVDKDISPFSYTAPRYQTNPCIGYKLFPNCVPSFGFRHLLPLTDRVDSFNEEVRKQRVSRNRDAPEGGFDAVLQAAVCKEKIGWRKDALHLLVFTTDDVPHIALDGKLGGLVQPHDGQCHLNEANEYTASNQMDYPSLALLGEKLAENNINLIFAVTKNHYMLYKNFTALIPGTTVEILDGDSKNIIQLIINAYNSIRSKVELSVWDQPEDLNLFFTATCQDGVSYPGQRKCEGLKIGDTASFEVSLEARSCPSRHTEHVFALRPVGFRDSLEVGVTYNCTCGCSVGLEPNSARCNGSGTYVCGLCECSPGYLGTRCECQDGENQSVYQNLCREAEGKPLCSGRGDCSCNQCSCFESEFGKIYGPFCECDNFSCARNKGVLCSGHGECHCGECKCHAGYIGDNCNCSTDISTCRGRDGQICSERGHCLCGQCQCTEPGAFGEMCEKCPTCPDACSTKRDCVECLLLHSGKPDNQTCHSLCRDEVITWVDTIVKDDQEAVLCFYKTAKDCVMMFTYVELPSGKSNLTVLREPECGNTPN
Description: (§1) The ability of the soluble MICA molecules in each of the concentrated supernatants to bind target molecules was assayed by an ELISA using the intended target proteins, integrin αVβ3 or αVβ5, as capture agents on the ELISA plate. After the respective integrins were adhered to the bottoms of the wells of the ELISA plate, the wells were washed and blocked, as well known in the field. Each sample (100 μl) of soluble MICA produced and secreted by 293T cells was added to wells containing αVβ3 or αVβ5, incubated and washed. The soluble MICA molecules captured by the integrins were detected by HRP-conjugated antibody to human MICA developed with Ultra TMB-ELISA substrate and the optical densities read. The quantity of soluble MICA in each sample was determined by the MICA-specific ELISA. […] The ELISA signal from a non-binding, negative control MICA (generated by pSW273) was subtracted from each integrin binding signal.

| Binder | αvβ5 signal [OD] | αvβ5 signal/ng [signal/ng MICA] |
| --- | --- | --- |
| B1 | 0.526 | 18.1 |
| B2 | 0.485 | 12.6 |
| B3 | 0.175 | 19.3 |
| B4 | 0.528 | 18.3 |
| B5 | 0.588 | 17.4 |
| B6 | 0.8 | 22.8 |
| B7 | 0.779 | 22.4 |
| B8 | 0.65 | 22.4 |
| B9 | 0.291 | 30.7 |
| B10 | 0.528 | 19.7 |
| B11 | 0.565 | 22.8 |
| B12 | 0.675 | 27.1 |
| B13 | 0.604 | 7.68 |
| B14 | 0.478 | 5.51 |
| B15 | 1.05 | 10.9 |
| B16 | 0.721 | 7.73 |
| B17 | 0.46 | 10 |
| B18 | 0.276 | 9.38 |
| B19 | 0.41 | 9.92 |

The binders below were run against T2, integrin αVβ3 (UniProt P06756 31-992; P05106 27-718) (assay: ELISA, coated integrin, anti-MICA-HRP).
T2 construct: Coated on the ELISA plate
T2 sequence (P06756 31-992, chain 1 of 2): as the sequence (P06756 31-992, chain 1 of 2) above
T2 sequence (P05106 27-718, chain 2 of 2): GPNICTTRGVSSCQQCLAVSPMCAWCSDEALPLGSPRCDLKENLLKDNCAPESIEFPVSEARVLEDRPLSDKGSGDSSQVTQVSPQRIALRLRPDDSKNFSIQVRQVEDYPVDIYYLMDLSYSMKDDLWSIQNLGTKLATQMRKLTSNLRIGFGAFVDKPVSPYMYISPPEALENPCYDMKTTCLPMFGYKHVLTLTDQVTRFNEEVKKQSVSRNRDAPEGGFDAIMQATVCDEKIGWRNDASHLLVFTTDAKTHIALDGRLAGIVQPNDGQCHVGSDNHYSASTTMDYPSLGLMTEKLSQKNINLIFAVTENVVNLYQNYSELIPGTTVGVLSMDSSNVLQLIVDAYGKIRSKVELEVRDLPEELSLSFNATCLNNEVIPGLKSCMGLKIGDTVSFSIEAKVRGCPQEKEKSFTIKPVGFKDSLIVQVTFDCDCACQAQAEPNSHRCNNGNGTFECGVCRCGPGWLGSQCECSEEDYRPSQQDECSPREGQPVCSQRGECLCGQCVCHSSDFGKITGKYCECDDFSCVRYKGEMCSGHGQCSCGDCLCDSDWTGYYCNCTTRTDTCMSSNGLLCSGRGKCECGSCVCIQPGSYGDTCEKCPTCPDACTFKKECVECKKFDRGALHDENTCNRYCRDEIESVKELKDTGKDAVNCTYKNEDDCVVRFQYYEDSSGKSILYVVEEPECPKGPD
Description: as §1

| Binder | αvβ3 signal [OD] | αvβ3 signal/ng [signal/ng MICA] |
| --- | --- | --- |
| B1 | 0.55 | 19 |
| B2 | 0.391 | 10.1 |
| B3 | 0.177 | 19.5 |
| B4 | 0.473 | 16.4 |
| B5 | 0.475 | 14 |
| B6 | 0.659 | 18.7 |
| B7 | 0.777 | 22.4 |
| B8 | 0.516 | 17.7 |
| B9 | 0.291 | 30.7 |
| B10 | 0.482 | 18 |
| B11 | 0.526 | 21.2 |
| B12 | 0.485 | 19.5 |
| B13 | 0.478 | 6.08 |
| B14 | 0.508 | 5.86 |
| B15 | 0.694 | 7.2 |
| B16 | 0.546 | 5.85 |
| B17 | 0.41 | 8.92 |
| B18 | 0.294 | 9.99 |
| B19 | 0.393 | 9.51 |

Each binder was assayed against T1, integrin αVβ5 (assay: phage ELISA, coated integrin, anti-M13-HRP).
Description: (§2) The phage vectors were independently transformed into NEBαF′tet competent E. coli cells. Phages produced by the transformed cells were tittered and their concentrations adjusted by dilution to 10¹³ per ml. The ability of the soluble MICA molecules in each of the phage preparations was assayed by an ELISA using the intended target proteins, integrin αVβ3 or αVβ5, as capture agents on the ELISA plate. After the respective integrins were adhered to the bottoms of the wells of the ELISA plate, the wells were washed and blocked, as well known in the field. Each sample (100 μl) of phage preparation was added to wells containing αVβ3 or αVβ5, incubated and washed. The phages captured by the integrins were detected by HRP-conjugated antibody to the M13 phage coat developed with Ultra TMB-ELISA substrate and the optical densities read.

| Binder | αvβ5 signal [OD] |
| --- | --- |
| B20 | 1.12 |

These binders were tested against T2, integrin αVβ3 (assay: phage ELISA, coated integrin, anti-M13-HRP).
Description: as §2

| Binder | αvβ3 signal [OD] |
| --- | --- |
| B20 | 0.791 |
